Substrate in the series “purified protein”: NC(=O)C1=CN([C@@H]2O[C@H](COP(=O)(O)OP(=O)(O)OC[C@H]3O[C@@H](n4cnc5c(N)ncnc54)[C@H](OP(=O)(O)O)[C@@H]3O)[C@@H](O)[C@H]2O)C=CC1
Briefly: purified protein. The following applies: 0.7 mM potassium ferricyanide, 50 mM Tris-HCl pH 8.0, 25°C. Type of series: biochemical, Synechococcus elongatus.

Substrate in series [1]: CCCCCCC=O
Put plainly: GC headspace assay of n-hexane formation. The series is classed as biochemical, Synechococcus elongatus. The conditions noted are these: chemical reductants PMS/NADH, ferrous ammonium sulfate, HEPES pH 7.2, 100 mM KCl, 10% glycerol, 4% DMSO, 37°C (conditions of the kcat assay).

B1: FNR (SynPcc7942_0978) (Synechococcus elongatus PCC 7942 = FACHB-805) (protein)
chain: MLNASVAGGAATTTYGNRLFIYEVIGLRQAEGEPSDSSIRRSGSTFFKVPYSRMNQEMQRILRLGGKIVSIRPAEEAAANNGAAPLQAAAEEPAAAPTPAPAAKKHSAEDVPVNIYRPNKPFVGKVLSNEPLVQEGGIGVVQHLTFDISEGDLRYIEGQSIGIIPDGTDDKGKPHKLRLYSIASTRHGDHVDDKTVSLCVRQLQYQNEAGETINGVCSTFLCGLKPGDDVKITGPVGKEMLLPADTDANVIMMGTGTGIAPFRAYLWRMFKDNERAINSEYQFNGKAWLIFGIPTTANILYKEELEALQAQYPDNFRLTYAISREQKNEAGGRMYIQDRVAEHADEIWNLLKDEKTHVYICGLRGMEDGIDQAMTVAAAKEDVVWSDYQRTLKKAGRWHVETY
One may read the Km as the concentration of substrate that gives half-maximal velocity. The term kcat denotes the maximal rate divided by the concentration of active sites. By kcat/Km is commonly meant the turnover number divided by the Michaelis constant. In the case of B1, in the series “purified protein”, the Michaelis constant (Km) amounted to 92.5 ± 7.6 µM, the kcat was 227 ± 7 s⁻¹ and the kcat/Km is 2.5e+06 ± 300000 M⁻¹ s⁻¹.

B2: ADO 1593 (Synechococcus elongatus PCC 7942 = FACHB-805) (protein)
chain: MPQLEASLELDFQSESYKDAYSRINAIVIEGEQEAFDNYNRLAEMLPDQRDELHKLAKMEQRHMKGFMACGKNLSVTPDMGFAQKFFERLHENFKAAAAEGKVVTCLLIQSLIIECFAIAAYNIYIPVADAFARKITEGVVRDEYLHRNFGEEWLKANFDASKAELEEANRQNLPLVWLMLNEVADDARELGMERESLVEDFMIAYGEALENIGFTTREIMRMSAYGLAAV
notes: apo-ADO reconstituted with ferrous iron
Take B2: in series [1], the Km was 224 ± 40 µM and the kcat stood at 0.002 ± 0.00033 s⁻¹.

These data come from PMC3691600, “Conversion of fatty aldehydes into alk (a/e)nes by in vitro reconstituted cyanobacterial aldehyde-deformylating oxygenase with the cognate electron transfer system” (Biotechnology for Biofuels, 2013).
